Test results from patent publication US20230265192A1 (GIGAGEN, published 2023).
Substitutions are numbered along the chain they refer to.

B1: antibody A1 (L1H1) (antibody, V domains shown)
VH: QVQLVESGGGVVQPGRSLRLSCAASGFTFSSFGMHWVRQAPGKGLEWVAVIWYDGRNKYYVDSVKGRFTISRDNSNNTLYLQMNSLRAEDTAVYYCARGEFFGEFFDYWGQGTLVTVSS
VL: EIVLTQSPGTLSLSPGEGATLSCRASQSFSSNYLAWYQQKPGQAPRLLIYGASSRATGIPDRFSGSGSGTDFTLTISRLEPEDFAVYYCQQYGTSPFTFGPGTKVDIK
notes: also called aCTLA-4.9; CTLA4.A1
B2: antibody A10 (L10H10) (antibody, V domains shown)
VH: QVQLVESGGGVVQPGRSLRLSCVASGFTLSSYGMHWVRQAPGKGLEWVAVIWYDGSNKHYADSVKGRFTISRDNSKNTLSLQMNSLRAEDTAVYYCARGGQLGPFDYWGQGTLVTVSS
VL: not shown
notes: also called aCTLA-4.22
B3: antibody A8 (L8H8) (antibody, V domains shown)
VH: B2 VH with V23A, L29F, S31R, S56R, H59Y, S80Y, V93L, Y95S, G99A, Q101E
VL: EIVLTQSPGTLSLSPGERATLSCRASQSVSYLAWYQQKPGQAPRLLIYGASSRATGIPDRFSGSGSGTDFTLTISRLEPEDFAVYYCQQYGSSPWTFGQGTKVEIK
notes: also called aCTLA-4.1
B4: antibody A9 (L9H9) (antibody, V domains shown)
VH: QVQLVESGGGVVQPGRSLRLSCAASGFTFSSHGMHWVRQAPGKGLEWVAVIWYDGSNKHYADSVKGRFTISRDNSKNTLYLQMNSLRAEDTAVYYCARGDILTGYYGYWGQGTLVTVSS
VL: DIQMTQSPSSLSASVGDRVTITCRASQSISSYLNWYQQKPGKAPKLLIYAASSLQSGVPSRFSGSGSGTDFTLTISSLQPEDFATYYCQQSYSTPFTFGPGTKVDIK
notes: also called aCTLA-4.24
B5: antibody A3 (L3H3) (antibody, V domains shown)
VH: B4 VH with A23I, H32Y, I51N, D100G, I101V, L102W, T103G, G104P, Y106F, G107D
VL: not shown
notes: also called aCTLA-4.2

The binders below were run against T1, His-tagged cynomolgus CTLA-4 (CT4-C5227; Acro Biosystems) (cynomolgus, UniProt G7PL88 36-161) (assay: BLI (Octet)).
T1 construct: also called soluble cynomolgus CTLA-4; cyno CTLA-4
Protocol: (§1) The binding specificity and affinity of each full-length antibody towards CTLA-4 were determined using biolayer interferometry (BLI) and/or surface plasmon resonance (SPR). Anti-cyno CTLA-4 and anti-mouse CTLA-4 affinities were tested using ForteBio (BLI). Anti-human CTLA-4 affinities were measured using Carterra (SPR).
(§2) For BLI, antibodies were loaded onto an Anti-Human IgG Fc (AHC) biosensor using the Octet Red96 system (ForteBio). Loaded biosensors were dipped into antigen dilutions beginning at 300 nM, with 6 serial dilutions at 1:3. Kinetic analysis was performed using a 1:1 binding model and global fitting.

T1 sequence (G7PL88 entry or part of it limits assumed, form in doubt): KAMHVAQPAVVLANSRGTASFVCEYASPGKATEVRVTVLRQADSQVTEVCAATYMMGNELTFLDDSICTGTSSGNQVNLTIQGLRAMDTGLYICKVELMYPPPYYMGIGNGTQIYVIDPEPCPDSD

Row | Kd [nM] | Binder
1 | 0.96 | B1
2 | 3.1 | B2
3 | 1 | B3
4 | 0.92 | B4
5 | 1.2 | B5

Each binder was assayed against mouse CTLA-4 (mouse, UniProt P09793 36-161, limits assumed) (assay: BLI (Octet)).
Protocol: as §1, §2

mouse CTLA-4, sequence (P09793 36-161 limits assumed): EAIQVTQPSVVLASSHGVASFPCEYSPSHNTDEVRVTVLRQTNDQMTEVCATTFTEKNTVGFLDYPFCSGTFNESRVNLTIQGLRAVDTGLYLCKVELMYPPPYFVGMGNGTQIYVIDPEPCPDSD

Row | Kd [nM] | binding result | Binder
6 | 51 |  | B1
7 |  | no binding (tested: 300 nM) | B2
8 |  | no binding (tested: 300 nM) | B3
9 |  | no binding (tested: 300 nM) | B4
10 |  | no binding (tested: 300 nM) | B5

What follows are binders tested against T2, His-tagged human CTLA-4 (CT4-H5229; Acro Biosystems) (human, UniProt P16410 36-161) (assay: SPR (Carterra)).
T2 construct: bought soluble protein; also called soluble human CTLA-4; recombinant human CTLA-4; not shown: His tag
Protocol: (§3) Then, goat anti-Human IgG Fc (Southern Biotech 2047-01) was coupled for 10 minutes at […] in 10 mM Sodim Acetate pH 4.5 (Carterra Inc.). The surface was then deactivated with 1 M ethanolamine pH 8.5 (Carterra Inc.). Running buffer used for the lawn immobilization was HBS-EPC (10 mM HEPES, 150 mM NaCl, 3 mM EDTA, 0.05% Tween 20, pH 7.4; Teknova).
(§4) The sensor chip was then transferred to a continuous flow microspotter (CFM; Carterra Inc.) for array capturing. The mAb supernatants were diluted 50-fold ([…] final concentration) into HBS-EPC with 1 mg/mL BSA. The samples were each captured twice with 15-minute and 4-minute capture steps on the first and second prints, respectively, to create multiple densities, using a […] flow rate. The running buffer in the CFM was also HBS-EPC.
(§5) Next, the sensor chip was loaded onto an SPR reader (MX-96 system; Ibis Technologies) for the kinetic analysis. CTLA-4 was injected at five increasing concentrations in a four-fold dilution series with concentrations of 1.95, 7.8, 31.25, 125, and 500 nM in running buffer (HBS-EPC with 1.0 mg/mL BSA). CTLA-4 injections were 5 minutes with a 15-minute dissociation at […] in a non-regenerative kinetic series. An injection of the goat anti-Human IgG Fc capture antibody at […] was injected at the end of the series to verify the capture level of each mAb. Binding data was double referenced by subtracting an interspot surface and a blank injection and analyzed for ka (on-rate), kd (off-rate), and KD (affinity) using the Kinetic Interaction Tool software (Carterra Inc.).

T2 sequence (P16410 36-161 limits assumed): as the sequence (G7PL88 entry or part of it limits assumed, form in doubt) above, with N14S, T18I, M106L counted along it

Row | Kd [nM] | Binder
11 | 0.77 | B1
12 | 22 | B2
13 | 4.6 | B3
14 | 6.8 | B4
15 | 1.5 | B5

Biological target: T2, His-tagged human CTLA-4 (CT4-H5229; …)
Assay: SPR (Carterra)
Remark: another data set of the same source
Protocol: as §3, §4, §5

Row | Kd [nM] | koff [s⁻¹] | kon [M⁻¹ s⁻¹] | Binder
16 | 0.77 | 0.00016 | 210000 | B1
17 | 22 | 0.00051 | 23000 | B2
18 | 4.6 | 0.00039 | 85000 | B3
19 | 6.8 | 0.00043 | 63000 | B4
20 | 1.5 | 0.00028 | 190000 | B5

These binders were tested against T3, human CTLA-4 expressed on the cell surface (human, UniProt P16410 36-223) (assay: cell-based or functional assay).
T3 sequence (P16410 36-223 limits assumed): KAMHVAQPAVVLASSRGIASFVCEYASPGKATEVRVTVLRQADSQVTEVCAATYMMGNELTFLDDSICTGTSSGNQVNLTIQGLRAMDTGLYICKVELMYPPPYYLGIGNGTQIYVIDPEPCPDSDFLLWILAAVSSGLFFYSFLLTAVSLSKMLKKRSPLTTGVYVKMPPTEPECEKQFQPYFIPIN

Row | Promega assay % inhibition [%] | Promega assay antagonist (EC50, ug/mL) [µg/mL] | Binder
21 | 43.2 | 0.13 | B1
22 | 24.5 | 0.26 | B2
23 | 54.7 | 0.15 | B3
24 | 60.8 | 0.19 | B4
25 | 49.8 | 0.18 | B5

Biological target: T3, human CTLA-4 expressed on the cell …
Assay: cell-based or functional assay
Remark: another data set of the same source

Row | Cell-based blocking activity EC50 [µg/mL] | Cell-based blocking activity max signal (RLU) | Binder
26 | 0.13 | 237 | B1
27 | 0.26 | 134 | B2
28 | 0.1 | 349 | B3
29 | 0.19 | 333 | B4
30 | 0.18 | 273 | B5

Each binder was assayed against T2, His-tagged human CTLA-4 (CT4-H5229; …) (assay: SPR (Carterra), soluble human CTLA-4).

Row | Kd [nM] | koff [s⁻¹] | kon [M⁻¹ s⁻¹] | Binder
31 | 0.77 | 0.00016 | 210000 | B1
32 | 22 | 0.00051 | 23000 | B2
33 | 4.6 | 0.00039 | 85000 | B3
34 | 6.8 | 0.00043 | 63000 | B4
35 | 1.5 | 0.00028 | 190000 | B5

Each binder was assayed against T1, His-tagged cynomolgus CTLA-4 … (assay: BLI (Octet), single antigen concentration).
Protocol: (§6) Table 23. In vitro characterization of scFvs reformatted as full-length antibodies. kon, koff, and KD of the indicated CTLA-4 mAbs for soluble human CTLA-4 was determined by SPR (Carterra). Geometric MFI of the indicated CTLA-4 mAbs bound to CTLA-4⁺ or CD27⁺ CHO cells as detected by a secondary human IgG antibody and flow cytometry. Affinity (KD) of the indicated CTLA-4 mAbs for soluble cynomolgus CTLA-4 was determined by a single antigen concentration BLI measurement (Octet). […] Due to constraints on sample size in each Promega bioassay kit, this set of aCTLA-4 mAbs was analyzed using multiple plates (plate letters correspond to Plate A-D in FIG. 20D).
Antibodies were loaded at 5 μg/mL onto Protein A biosensors that were dipped into 80 nM antigen, and kinetic constants were calculated using a monovalent model.

Row | Kd [nM] | Binder
36 | 1 | B1
37 | 3.1 | B2
38 | 1 | B3
39 | 0.9 | B4
40 | 1.2 | B5

The binders below were run against T3, human CTLA-4 expressed on the cell … (assay: flow cytometry, 10 µg/mL mAb, geometric MFI).
Protocol: as §6
(§7) To determine if the CTLA-4 mAbs bound the appropriate antigen expressed on the surface of mammalian cells, CHO cell lines stably expressing human CTLA-4 or an irrelevant antigen (CD27) were generated. Cells (0.5×10⁶ each cell line) were combined and washed with MACS buffer (Dulbecco's Phosphate Buffered Saline [DPBS], with 0.5% bovine serum albumin [BSA], and 2 mM ethylenediaminetetraacetic acid [EDTA]). The cells were incubated with 10 μg/mL anti-CTLA-4 for 30 min at 4° C., then excess, unbound mAbs were removed by washing twice with MACS buffer. The cells were then stained with PE-conjugated anti-Human IgG Fc antibody (clone M1310G05, BioLegend 410720, San Diego, Calif., USA) to detect bound anti-CTLA-4 and with fluorescein isothiocyanate (FITC)-conjugated anti-CD27 (clone 0323, BioLegend 302806, San Diego, Calif., USA) to distinguish the cells expressing the irrelevant antigen. Cells were washed twice with MACS buffer, fixed with 4% paraformaldehyde fixation buffer (BioLegend 420801, San Diego, Calif., USA) for 20 minutes at room temperature and washed twice more with MACS buffer.

Row | MFI of CTLA-4+ CHO cells | Binder
41 | 1330 | B1
42 | 641 | B2
43 | 1010 | B3
44 | 934 | B4
45 | 1050 | B5

Each binder was assayed against T4, CD27 on CHO cells (UniProt P26842 20-260, limits assumed) (assay: flow cytometry, 10 µg/mL mAb, geometric MFI).
T4 construct: whole, on cells; also called CD27+ CHO cells; irrelevant antigen (CD27)
Protocol: as §6, §7

T4 sequence (P26842 20-260 limits assumed): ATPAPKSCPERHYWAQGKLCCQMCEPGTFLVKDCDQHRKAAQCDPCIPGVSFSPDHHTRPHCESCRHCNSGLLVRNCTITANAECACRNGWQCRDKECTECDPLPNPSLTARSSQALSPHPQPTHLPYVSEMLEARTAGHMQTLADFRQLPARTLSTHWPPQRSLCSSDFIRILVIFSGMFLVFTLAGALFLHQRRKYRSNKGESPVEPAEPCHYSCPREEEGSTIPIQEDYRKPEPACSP

Row | MFI of CD27+ CHO cells | Binder
46 | 18.5 | B1
47 | 15.2 | B2
48 | 18.6 | B3
49 | 26 | B4
50 | 18.2 | B5

The binders below were run against T4, CD27 on CHO cells (assay: flow cytometry, mixed CTLA-4+ and CD27+ CHO cells).
Protocol: To determine if the CTLA-4 mAbs bound the appropriate antigen expressed on the surface of mammalian cells, CHO cell lines stably expressing human CTLA-4 or an irrelevant antigen (CD27) were generated. Cells (0.5×10⁶ each cell line) were combined and washed with MACS buffer (Dulbecco's Phosphate Buffered Saline [DPBS], with 0.5% bovine serum albumin [BSA], and 2 mM ethylenediaminetetraacetic acid [EDTA]). The cells were incubated with 10 μg/mL anti-CTLA-4 for 30 min at 4° C., then excess, unbound mAbs were removed by washing twice with MACS buffer. The cells were then stained with PE-conjugated anti-Human IgG Fc antibody (clone M1310G05, BioLegend 410720, San Diego, Calif., USA) to detect bound anti-CTLA-4 and with fluorescein isothiocyanate (FITC)-conjugated anti-CD27 (clone 0323, BioLegend 302806, San Diego, Calif., USA) to distinguish the cells expressing the irrelevant antigen. Cells were washed twice with MACS buffer, fixed with 4% paraformaldehyde fixation buffer (BioLegend 420801, San Diego, Calif., USA) for 20 minutes at room temperature and washed twice more with MACS buffer. […] Binding of mAbs to CTLA-4 on the cell surface was determined using LSR II (BD Biosciences, San Jose, Calif., USA) or CytoFLEX LX (Beckman Coulter, Brea. Calif., USA) flow cytometers and analyzed using FlowJo (v10.6.1, BD Biosciences, San Jose, Calif., USA).

Row | binding result | Binder
51 | no binding (tested: 10 µg/mL) | B1
52 | no binding (tested: 10 µg/mL) | B2
53 | no binding (tested: 10 µg/mL) | B3
54 | no binding (tested: 10 µg/mL) | B4
55 | no binding (tested: 10 µg/mL) | B5
